Sequences and labels used below:
B1: TRAF3IP2 (parent)
chain: PGQPLPGASVRGLHPVQKVILNYP
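Also: lentivirally expressed fusions sorted by FACS into six bins by GFP to DsRed ratio, PSI derived from sequencing read proportions per bin multiplied by bin number.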

The variants in the data set derive from B1. The data set can be described thus: protein stability index of a GFP-peptide fusion (GPS, HEK-293T) (PSI 1-6); higher = more stable. The following applies: c terminus: a fixed tail appended.
In the case of PGQPLPGASVRGCHPVQKVILNYP [L13C], the protein stability index worked out at 1.83.

Consider PGQPLPGASVRGSHPVQKVILNYP [L13S], for which the protein stability index was 3.42.

As to PGQPLPGASVRGKHPVQKVILNYP [L13K], the protein stability index came out at 3.5.

PGQPLPGASVRGAHPVQKVILNYP [L13A]: the protein stability index amounted to 3.38.

As to PGQPLPGASVRGIHPVQKVILNYP [L13I], the protein stability index was 3.1.

Regarding PGQPLPGASVRGPHPVQKVILNYP [L13P], the protein stability index was 3.84.

For PGQPLPGASVRGTHPVQKVILNYP [L13T], the protein stability index came out at 3.56.

Consider PGQPLPGASVRGDHPVQKVILNYP [L13D], for which the protein stability index stood at 3.68.

For the variant PGQPLPGASVRGMHPVQKVILNYP [L13M], the protein stability index turned out to be 3.59.

In the case of PGQPLPGASVRGGHPVQKVILNYP [L13G], the protein stability index was determined as 3.31.

With PGQPLPGASVRGNHPVQKVILNYP [L13N], the protein stability index turned out to be 3.36.

PGQPLPGASVRGHHPVQKVILNYP [L13H]: the protein stability index amounted to 3.75.

For the variant PGQPLPGASVRGVHPVQKVILNYP [L13V], the protein stability index came to 2.85.

For the variant PGQPLPGASVRGWHPVQKVILNYP [L13W], the protein stability index was found to be 3.02.

As to PGQPLPGASVRGRHPVQKVILNYP [L13R], the protein stability index was 3.68.

For PGQPLPGASVRGYHPVQKVILNYP [L13Y], the protein stability index is 2.26.

As to PGQPLPGASVRGQHPVQKVILNYP [L13Q], the protein stability index was determined as 3.69.

Turning to PGQPLPGASVRGFHPVQKVILNYP [L13F], the protein stability index was determined as 2.91.

Consider PGQPLPGASVRGEHPVQKVILNYP [L13E], for which the protein stability index was determined as 3.9.

Turning to PGQPLPGTSVRGLHPVQKVILNYP [A8T], the protein stability index was 3.65.

On to PGQPLPGFSVRGLHPVQKVILNYP [A8F], for which the protein stability index stood at 2.51.

Take PGQPLPGDSVRGLHPVQKVILNYP [A8D]: the protein stability index came out at 3.19.

Take PGQPLPGSSVRGLHPVQKVILNYP [A8S]: the protein stability index is 3.27.

PGQPLPGQSVRGLHPVQKVILNYP [A8Q]: the protein stability index was found to be 2.59.

Consider PGQPLPGKSVRGLHPVQKVILNYP [A8K], for which the protein stability index amounted to 2.62.

With PGQPLPGESVRGLHPVQKVILNYP [A8E], the protein stability index was 3.36.

For the variant PGQPLPGPSVRGLHPVQKVILNYP [A8P], the protein stability index was 3.08.

Take PGQPLPGMSVRGLHPVQKVILNYP [A8M]: the protein stability index amounted to 2.97.

For the variant PGQPLPGVSVRGLHPVQKVILNYP [A8V], the protein stability index stood at 2.39.

In the case of PGQPLPGRSVRGLHPVQKVILNYP [A8R], the protein stability index turned out to be 2.89.

PGQPLPGGSVRGLHPVQKVILNYP [A8G]: the protein stability index was 3.24.

Turning to PGQPLPGLSVRGLHPVQKVILNYP [A8L], the protein stability index was 3.21.

As to PGQPLPGCSVRGLHPVQKVILNYP [A8C], the protein stability index was 2.27.

Regarding PGQPLPGISVRGLHPVQKVILNYP [A8I], the protein stability index is 2.83.

Consider PGQPLPGNSVRGLHPVQKVILNYP [A8N], for which the protein stability index was 3.47.

For the variant PGQPLPGHSVRGLHPVQKVILNYP [A8H], the protein stability index was 2.97.

Consider PGQPLPGYSVRGLHPVQKVILNYP [A8Y], for which the protein stability index amounted to 2.71.

As to PGQPLPQASVRGLHPVQKVILNYP [G7Q], the protein stability index is 3.12.

As to PGQPLPAASVRGLHPVQKVILNYP [G7A], the protein stability index came to 3.02.

Regarding PGQPLPPASVRGLHPVQKVILNYP [G7P], the protein stability index worked out at 3.04.

Turning to PGQPLPFASVRGLHPVQKVILNYP [G7F], the protein stability index was 3.15.

Take PGQPLPKASVRGLHPVQKVILNYP [G7K]: the protein stability index is 2.76.

Consider PGQPLPTASVRGLHPVQKVILNYP [G7T], for which the protein stability index is 3.31.

As for PGQPLPYASVRGLHPVQKVILNYP [G7Y], the protein stability index worked out at 2.26.

On to PGQPLPHASVRGLHPVQKVILNYP [G7H], for which the protein stability index turned out to be 3.2.

For the variant PGQPLPVASVRGLHPVQKVILNYP [G7V], the protein stability index was determined as 3.26.

In the case of PGQPLPNASVRGLHPVQKVILNYP [G7N], the protein stability index worked out at 2.68.

PGQPLPDASVRGLHPVQKVILNYP [G7D]: the protein stability index stood at 3.22.

PGQPLPEASVRGLHPVQKVILNYP [G7E]: the protein stability index is 3.55.

Consider PGQPLPMASVRGLHPVQKVILNYP [G7M], for which the protein stability index turned out to be 3.

As for PGQPLPRASVRGLHPVQKVILNYP [G7R], the protein stability index was 2.69.

Turning to PGQPLPLASVRGLHPVQKVILNYP [G7L], the protein stability index was determined as 3.44.

As to PGQPLPWASVRGLHPVQKVILNYP [G7W], the protein stability index amounted to 2.09.

For PGQPLPIASVRGLHPVQKVILNYP [G7I], the protein stability index was 3.05.

With PGQPLPCASVRGLHPVQKVILNYP [G7C], the protein stability index worked out at 2.59.

On to PGQPLPSASVRGLHPVQKVILNYP [G7S], for which the protein stability index was determined as 2.76.

In the case of PGQPLLGASVRGLHPVQKVILNYP [P6L], the protein stability index came out at 2.42.

PGQPLMGASVRGLHPVQKVILNYP [P6M]: the protein stability index came to 3.09.

In the case of PGQPLTGASVRGLHPVQKVILNYP [P6T], the protein stability index came to 3.21.

With PGQPLYGASVRGLHPVQKVILNYP [P6Y], the protein stability index worked out at 2.72.

As to PGQPLCGASVRGLHPVQKVILNYP [P6C], the protein stability index was determined as 2.08.

Regarding PGQPLIGASVRGLHPVQKVILNYP [P6I], the protein stability index turned out to be 2.79.

On to PGQPLGGASVRGLHPVQKVILNYP [P6G], for which the protein stability index was found to be 2.5.

Regarding PGQPLFGASVRGLHPVQKVILNYP [P6F], the protein stability index worked out at 3.17.

Turning to PGQPLKGASVRGLHPVQKVILNYP [P6K], the protein stability index is 2.54.

Turning to PGQPLSGASVRGLHPVQKVILNYP [P6S], the protein stability index was 3.14.

Turning to PGQPLVGASVRGLHPVQKVILNYP [P6V], the protein stability index came to 3.46.

With PGQPLHGASVRGLHPVQKVILNYP [P6H], the protein stability index worked out at 3.44.

With PGQPLDGASVRGLHPVQKVILNYP [P6D], the protein stability index came to 3.37.

As to PGQPLWGASVRGLHPVQKVILNYP [P6W], the protein stability index is 2.53.

In the case of PGQPLEGASVRGLHPVQKVILNYP [P6E], the protein stability index turned out to be 3.69.

Take PGQPLRGASVRGLHPVQKVILNYP [P6R]: the protein stability index amounted to 3.63.

On to PGQPLQGASVRGLHPVQKVILNYP [P6Q], for which the protein stability index turned out to be 3.46.

Consider PGQPLNGASVRGLHPVQKVILNYP [P6N], for which the protein stability index was 3.21.

For the variant PGQPLPGASVRGLMPVQKVILNYP [H14M], the protein stability index stood at 2.69.

On to PGQPLPGASVRGLPPVQKVILNYP [H14P], for which the protein stability index came to 3.67.

PGQPLPGASVRGLNPVQKVILNYP [H14N]: the protein stability index is 3.24.

PGQPLPGASVRGLYPVQKVILNYP [H14Y]: the protein stability index was 2.82.

For the variant PGQPLPGASVRGLAPVQKVILNYP [H14A], the protein stability index worked out at 3.45.

As for PGQPLPGASVRGLFPVQKVILNYP [H14F], the protein stability index was 2.61.

Take PGQPLPGASVRGLIPVQKVILNYP [H14I]: the protein stability index was 3.04.

As for PGQPLPGASVRGLKPVQKVILNYP [H14K], the protein stability index was determined as 3.51.

As to PGQPLPGASVRGLWPVQKVILNYP [H14W], the protein stability index is 2.15.

For PGQPLPGASVRGLGPVQKVILNYP [H14G], the protein stability index was determined as 2.59.

Consider PGQPLPGASVRGLDPVQKVILNYP [H14D], for which the protein stability index came to 3.67.

In the case of PGQPLPGASVRGLLPVQKVILNYP [H14L], the protein stability index turned out to be 2.83.

For PGQPLPGASVRGLEPVQKVILNYP [H14E], the protein stability index turned out to be 3.96.

Consider PGQPLPGASVRGLQPVQKVILNYP [H14Q], for which the protein stability index came out at 3.67.

With PGQPLPGASVRGLTPVQKVILNYP [H14T], the protein stability index came out at 3.29.

Take PGQPLPGASVRGLRPVQKVILNYP [H14R]: the protein stability index turned out to be 3.37.

As for PGQPLPGASVRGLSPVQKVILNYP [H14S], the protein stability index is 3.19.

For PGQPLPGASVRGLVPVQKVILNYP [H14V], the protein stability index was 2.96.

On to PGQPLPGASVRGLCPVQKVILNYP [H14C], for which the protein stability index is 3.3.

In the case of PGQPLPGASVQGLHPVQKVILNYP [R11Q], the protein stability index amounted to 3.79.

Values taken from the supplement of paper PMC10567573.
